Patent publication US20240158497A1
Values joined by “and” are separate entries in the source; they are usually repeats but may differ in a detail not shown here. Equal values may be shown once. One block for each substance: values may come before it.

Tests used:
[1] = biological target: full length human GP130 (L2V natural variant) on HEK293/Stat3-luc/gp130-2X Sort cells (human) (UniProt P40189); assay: FACS, secondary antibody alone on HEK293/gp130 2X Sort cells
[2] = biological target: extracellular domain of human LEPR, GPI-anchored, on HEK293/hLEPR-GPI cells (human) (UniProt P48357); assay: FACS, secondary antibody alone on HEK293/hLEPR-GPI cells, no Leptin
Chain of extracellular domain of human LEPR, GPI-anchored, on HEK293/hLEPR-GPI cells (human) (P48357 22-839 limits assumed): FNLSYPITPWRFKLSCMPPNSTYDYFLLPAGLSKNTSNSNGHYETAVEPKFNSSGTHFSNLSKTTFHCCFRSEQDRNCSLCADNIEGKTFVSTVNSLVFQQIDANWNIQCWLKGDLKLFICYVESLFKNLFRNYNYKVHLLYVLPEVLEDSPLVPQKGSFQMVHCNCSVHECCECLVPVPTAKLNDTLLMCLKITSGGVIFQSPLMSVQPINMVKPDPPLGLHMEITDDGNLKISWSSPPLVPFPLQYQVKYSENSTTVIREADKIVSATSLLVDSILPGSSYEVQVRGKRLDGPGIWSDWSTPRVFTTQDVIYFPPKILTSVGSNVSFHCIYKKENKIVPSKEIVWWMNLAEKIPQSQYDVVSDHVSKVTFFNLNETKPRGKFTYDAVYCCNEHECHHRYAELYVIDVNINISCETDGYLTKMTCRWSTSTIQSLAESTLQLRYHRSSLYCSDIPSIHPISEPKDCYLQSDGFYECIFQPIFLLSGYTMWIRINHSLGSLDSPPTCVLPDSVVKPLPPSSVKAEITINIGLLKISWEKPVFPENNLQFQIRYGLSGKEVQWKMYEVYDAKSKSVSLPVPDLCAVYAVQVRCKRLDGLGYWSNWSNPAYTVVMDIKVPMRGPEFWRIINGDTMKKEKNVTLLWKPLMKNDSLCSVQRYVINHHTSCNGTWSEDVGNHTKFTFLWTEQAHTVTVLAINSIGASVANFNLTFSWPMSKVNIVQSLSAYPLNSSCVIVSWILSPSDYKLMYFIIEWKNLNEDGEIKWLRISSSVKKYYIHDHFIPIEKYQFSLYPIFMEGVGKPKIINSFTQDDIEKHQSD

[3] = biological target: extracellular domain of human LEPR, GPI-anchored, on HEK293/hLEPR-GPI cells (human) (UniProt P48357); assay: FACS, secondary antibody alone on HEK293/hLEPR-GPI cells, 1 µM Leptin
[4] = biological target: extracellular domain of human LEPR, GPI-anchored, on HEK293/hLEPR-GPI cells (human) (UniProt P48357); assay: FACS, 200 nM antibody on HEK293/hLEPR-GPI cells, no Leptin
[5] = biological target: wild-type human GP130 on HEK293.STAT3.Luc.GP130 reporter cells (human) (UniProt P40189); assay: cell-based or functional assay
Chain of wild-type human GP130 on HEK293.STAT3.Luc.GP130 reporter cells (human) (P40189 23-918): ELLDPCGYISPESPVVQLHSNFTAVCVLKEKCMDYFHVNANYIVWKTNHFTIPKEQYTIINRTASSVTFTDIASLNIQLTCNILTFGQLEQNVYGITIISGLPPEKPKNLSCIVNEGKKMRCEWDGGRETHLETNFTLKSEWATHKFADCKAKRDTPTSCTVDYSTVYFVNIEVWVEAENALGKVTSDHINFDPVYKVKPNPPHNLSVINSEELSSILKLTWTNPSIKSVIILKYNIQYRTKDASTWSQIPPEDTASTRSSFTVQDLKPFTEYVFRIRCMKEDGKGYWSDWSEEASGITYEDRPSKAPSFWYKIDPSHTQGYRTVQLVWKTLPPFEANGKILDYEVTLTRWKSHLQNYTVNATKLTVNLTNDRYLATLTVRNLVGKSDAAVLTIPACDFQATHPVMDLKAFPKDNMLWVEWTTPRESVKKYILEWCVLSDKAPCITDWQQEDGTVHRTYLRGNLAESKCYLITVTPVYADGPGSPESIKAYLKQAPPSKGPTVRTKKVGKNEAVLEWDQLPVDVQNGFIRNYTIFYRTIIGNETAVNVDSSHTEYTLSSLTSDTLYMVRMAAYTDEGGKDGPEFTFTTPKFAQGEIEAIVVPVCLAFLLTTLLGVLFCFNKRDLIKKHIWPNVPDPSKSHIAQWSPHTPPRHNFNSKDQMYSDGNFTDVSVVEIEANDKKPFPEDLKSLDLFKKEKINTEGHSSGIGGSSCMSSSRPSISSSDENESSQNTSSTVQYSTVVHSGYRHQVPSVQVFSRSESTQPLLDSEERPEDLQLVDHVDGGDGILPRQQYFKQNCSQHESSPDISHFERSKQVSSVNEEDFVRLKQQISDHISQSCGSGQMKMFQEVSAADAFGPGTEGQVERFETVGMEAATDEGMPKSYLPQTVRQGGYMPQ

[6] = biological target: mutant human LEPR (Y1141F) on HEK293.STAT3.Luc.GP130.hLEPR (Y1141F) cells (human) (UniProt P48357); assay: cell-based or functional assay
Chain of mutant human LEPR (Y1141F) on HEK293.STAT3.Luc.GP130.hLEPR (Y1141F) cells (human) (P48357 22-1165 Y1141F): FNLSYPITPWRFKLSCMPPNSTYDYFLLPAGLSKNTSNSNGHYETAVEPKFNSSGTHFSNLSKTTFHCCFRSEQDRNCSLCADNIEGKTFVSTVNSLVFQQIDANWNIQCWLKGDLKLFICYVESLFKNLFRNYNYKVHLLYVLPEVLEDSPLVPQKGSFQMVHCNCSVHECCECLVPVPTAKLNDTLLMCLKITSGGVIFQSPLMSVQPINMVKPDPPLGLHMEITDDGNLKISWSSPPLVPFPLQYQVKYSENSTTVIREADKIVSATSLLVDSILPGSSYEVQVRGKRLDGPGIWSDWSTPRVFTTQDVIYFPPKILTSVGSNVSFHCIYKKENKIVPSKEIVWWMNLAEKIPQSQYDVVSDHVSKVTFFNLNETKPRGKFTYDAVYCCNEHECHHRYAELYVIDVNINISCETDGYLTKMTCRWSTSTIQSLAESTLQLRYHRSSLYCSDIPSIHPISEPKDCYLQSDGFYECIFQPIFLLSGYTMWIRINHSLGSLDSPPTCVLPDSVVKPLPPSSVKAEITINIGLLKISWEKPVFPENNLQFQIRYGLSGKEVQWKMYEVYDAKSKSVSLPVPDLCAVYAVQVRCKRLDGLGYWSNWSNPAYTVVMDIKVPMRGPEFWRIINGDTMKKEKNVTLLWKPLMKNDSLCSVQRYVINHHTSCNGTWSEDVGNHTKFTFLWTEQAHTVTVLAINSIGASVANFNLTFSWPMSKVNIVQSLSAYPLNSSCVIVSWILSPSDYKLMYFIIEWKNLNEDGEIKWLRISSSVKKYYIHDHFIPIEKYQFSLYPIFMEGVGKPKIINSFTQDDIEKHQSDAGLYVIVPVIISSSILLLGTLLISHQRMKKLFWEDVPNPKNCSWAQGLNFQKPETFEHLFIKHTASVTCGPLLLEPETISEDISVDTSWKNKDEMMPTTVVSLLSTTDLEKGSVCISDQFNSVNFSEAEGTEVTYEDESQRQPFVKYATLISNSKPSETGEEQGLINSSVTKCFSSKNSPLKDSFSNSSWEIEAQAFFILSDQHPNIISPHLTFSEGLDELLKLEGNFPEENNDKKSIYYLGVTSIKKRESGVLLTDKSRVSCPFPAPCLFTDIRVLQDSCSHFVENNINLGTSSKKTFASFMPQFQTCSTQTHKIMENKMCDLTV

[7] = biological target: full length human GP130 (L2V natural variant) on HEK293/Stat3-luc/gp130-2X Sort cells (human) (UniProt P40189); assay: FACS, 200 nM antibody on HEK293/gp130 2X Sort cells
[8] = biological target: extracellular domain of human LEPR, GPI-anchored, on HEK293/hLEPR-GPI cells (human) (UniProt P48357); assay: FACS, 200 nM antibody on HEK293/hLEPR-GPI cells, 1 µM Leptin
[9] = biological target: gp130 expressed endogenously on IMR-32/STAT3-Luc cells (human) (UniProt P40189); assay: cell-based or functional assay
Chain of gp130 expressed endogenously on IMR-32/STAT3-Luc cells (human) (P40189 23-918): as the sequence (P40189 23-918) above

Binding Ratio, normalized to unstained sample (FL4-A) [1]: 1 fold
Binding Ratio, normalized to unstained sample (FL4-A) [2]: 3 fold
Binding Ratio, normalized to unstained sample (FL4-A) [3]: 2 fold
Substance: Alexa Fluor-647 conjugated secondary antibody (Jackson ImmunoResearch Laboratories Inc., #109-607-003)

Binding Ratio, normalized to unstained sample (FL4-A) [4]: 3 fold
Assay Buffer, % activity [5]: 0%
RLU, Assay Buffer (no soluble protein) [5]: 12200 RLU and 12100 RLU
Assay Buffer, % activity [6]: 0%
RLU, Assay Buffer (no soluble protein) [6]: 12200 RLU and 12100 RLU
Binding Ratio, normalized to unstained sample (FL4-A) [7]: 2 fold
Binding Ratio, normalized to unstained sample (FL4-A) [8]: 3 fold
Substance: Isotype Control (antibody)

EC50 (M), STAT3-luciferase activation of HEK293.STAT3.Luc.GP130.hLEPR (Y1141F) cells [5]: 5.92e-10 M
EC50 (M), STAT3-luciferase activation of HEK293.STAT3.Luc.GP130.hLEPR (a) cells [5]: 1.21e-10 M
Percentage activation as compared to hOSM [5]: 100%
Percentage maximum activation as compared to hOSM [5]: 100%
Substance: human OSM (R&D Systems, #295-OM/CF) (from UniProt P13725 26-221) (ligand)

EC50 of activation of IMR-32/STAT3-luc cells (STAT3-luciferase) [9]: 54 pM
Substance: human Oncostatin M (from UniProt P13725 26-221) (ligand)
